What is called Kd is the constant that tells how readily two partners part at equilibrium. High values mean a looser complex, low ones a tighter complex.

These results are taken from article PMC4414246.

What all share (experiment): fluorescence polarization
In data set [1] the target is dK50dM51 E19S (UniProt P09012 10-89, E19S;del50-51).
Data set [2] deals with U1A E19S (UniProt P09012 10-89, E19S).
For data set [3], the target named is U1A M51K (UniProt P09012 10-89, M51K).
Data set [4] deals with U1A L49A (UniProt P09012 10-89, L49A).
The target in data set [5] is U1A L49K (UniProt P09012 10-89, L49K).
Data set [6] deals with U1A E19F (UniProt P09012 10-89, E19F).
For data set [7], the target named is U1A M51A (UniProt P09012 10-89, M51A).
Data set [8] addresses U1A E19K (UniProt P09012 10-89, E19K).
Data set [9] deals with U1A E19A (UniProt P09012 10-89, E19A).
The target in data set [10] is dK50dM51 E19K (UniProt P09012 10-89, E19K;del50-51).
Data set [11] has as its target U1A (UniProt P09012 10-89).
Data set [12] deals with U1A L49A:E19A (UniProt P09012 10-89, E19A;L49A).
The target of data set [13] is U1A M51A:E19A (UniProt P09012 10-89, E19A;M51A).
For data set [14], the target named is U1A E19S:Y13Q (UniProt P09012 10-89, Y13Q;E19S).
The target of data set [15] is U1A E19S:N15V (UniProt P09012 10-89, N15V;E19S).
For data set [16], the target named is U1A E19A:N15V (UniProt P09012 10-89, N15V;E19A).

B1: TAR DNA (structured_DNA)
DNA: GGCAGATCTGAGCCTGGGAGCTCTCTGCC
As to B1, the Kd in data set [1] turned out to be 59.9 ± 14.2 µM; in data set [2] it was 91.9 ± 33.4 µM; in data set [3], 54.3 ± 7.9 µM; in data set [4], 88.2 ± 22 µM; in data set [5] it was 19.5 ± 2.9 µM; in data set [6], 156 ± 80 µM. The Kd in data set [7] was found to be 179 ± 37.5 µM; in data set [8], 12.3 ± 2 µM; in data set [9], 100 ± 33.4 µM; in [10] it was 29.8 ± 5.8 µM; in [11], 146 ± 46 µM.

B2: U1hpII RNA (structured_RNA)
RNA: AGCUUAUCCAUUGCACCGGAUAAGCU
In the case of B2, the Kd in [2] was 11.4 ± 1.6 µM; in data set [12], 11.7 ± 2.1 µM; in [4], less than 0.01 µM; in data set [13], 15.8 ± 2.7 µM; in data set [14], 63.6 ± 8.9 µM; in data set [6], 36.1 ± 6.8 µM. Further, the results for the dissociation constant Kd in [15] and in data set [16] were 15.1 ± 2 µM and 48.4 ± 12.4 µM, respectively.
